According to publication PMC5415106:

B1: GST-Dpb11-wild-type [budding yeast] / PKA-Sld2T84D [modified: 32P-phosphate on the artificial PKA site; 32P-phosphate on the artificial PKA site] [budding yeast] (parent)
chain 1: MKPFQGITFCPTAINNEILAKKISKKIIKLGGIFSKDLTRQVNVLVVGSTTNTNKFKFAVKHRFDIIFIDIQAIDDIYQLWLSGENILPDSNTATMTGSTYEMLKILYRRFSFKYLHNFNIFIGRITDTNITSIDSLVRSIKKLGCSSYNYQNFVIKDTSSHNDDDDQGQNGQISIFVTDTLLGARVNAAIEQNIPIVHFKWILDCQKRSALLPYDPYYLLPNIKDLPYDSIGSNSCDCWDKINTTFPTNIDAQSSLQRQQSSSTLTPSLPKTSSLLNKFKPKGEKIWDKAMSLQQHSKTNFSVLGQSPLSINNKQEDLSDNSTLIFKNCAFIIHHIFPGNHRSILTKIVVQNGGKIETSYLSGIYDHSYYIIPSNKALDSFNDLPEIIDDNDGIVTEFFIERCLYYQKLLHPIDLWSKPFLSTIEFQVSSSSKLLHHEFSSSPFLNVTITGFSGVELLHLTKVLNLLKPMGINYVEYLNKSTDILLINLAALPSIPKTHPLWSNEFSDLFTQFCINNNNDDPGDNNRKDFQNNSILRNSMKRKIEYIKKFHSIPVVTPAFIFKLLSAASGENNEIFLNNIKWCIICPRGHKDDFKCKIKKPYYTSISSEKKYQNNDPKIDKTILLKRNNSSLSEHSMKDTKNELLQKIRETDSGRKKRSVSSSIMDVSSERQMPDTKRIKLESLPKNFVPKQIKRTTSWGTIMSENVPTEQPTAISNPEEIPRTEEVSHTQVTYGSIQDKKRTASLEKPMRRQTRNQTKELDS
chain 2: MYSFELDKLKIELKTWEHDFIDKNKREPTRDDIKSLRTVRQMYKQYSTLKKKQSLQRQKVDTQESVELPAHKKDHDEVVEIGPDPQVYGKAISIFDMNLSPIKPIYMTFTNNIDVNNDNSKTISNESSPRKTILLKSSPADRTLVAEPISSVKRQLNFQMLNASSTRTPTSSPCKNRNGKLVEIKKCSPTINPPLESGKPSGYYGPNSPLKLDEENIHLNISLNSSTKRRLQIAYPSLQKTPSKDQADISTSFSPSPLIRRPLTKSLIELAREHTEIVKEFGVLQEEDIEEEEEGEEGENGYDEKNHEDDFGLEDELIRPKVVKDIFQEDDDNDDSQAREDTFIRKRPKRRKVIRRLRDNDPETETAGFERDVHKELVKLKRRKVAEFLGSTSQISDTEFEHDPEASSGVVSSEQKPTAKRKGRKKYNLVSNNFRRLKLPKKNRFSNGRWGRR
B2: GST-Dpb11-wild-type [budding yeast] / Cdc45 (purified, radiolabelled) [budding yeast] (parent)
chain 1: B1 chain 1
chain 2: MYYGISQFSEAYNKILRNSSSHSSCQLVIFVSCLNIDALCATKMLSLLFKKQLVQSQIVPIFGYSELRRHYSQLDDNINSLLLVGFGGVIDLEAFLEIDPQEYVIDTDEKSGEQSFRRDIYVLDAHRPWNLDNIFGSQIIQCFDDGTVDDTLGEQKEAYYKLLELDEESGDDELSGDENDNNGGDDEATDADEVTDEDEEDEDETISNKRGNSSIGPNDLSKRKQRKKQIHEYEGVLEEYYSQGTTVVNSISAQIYSLLSAIGETNLSNLWLNILGTTSLDIAYAQVYNRLYPLLQDEVKRLTPSSRNSVKTPDTLTLNIQPDYYLFLLRHSSLYDSFYYSNYVNAKLSLWNENGKKRLHKMFARMGIPLSTAQETWLYMDHSIKRELGIIFDKNLDRYGLQDIIRDGFVRTLGYRGSISASEFVEALTALLEVGNSTDKDSVKINNDNNDDTDGEEEEDNSAQKLTNLRKRWVSNFWLSWDALDDRKVELLNRGIQLAQDLQRAIFNTGVAILEKKLIKHLRIYRLCVLQDGPDLDLYRNPLTLLRLGNWLIECCAESEDKQLLPMVLASIDENTDTYLVAGLTPRYPRGLDTIHTKKPILNNFSMAFQQITAETDAKVRIDNFESSIIEIRREDLSPFLEKLTLSGLL

Legend:
[1] = variants of: B1; experiment: GST pull-down, phosphorimaging; details: with PKA-Sld2T84D [modified: 32P-phosphate on the artificial PKA site
[2] = variants of: B2; experiment: GST pull-down, phosphorimaging; details: with Cdc45 (purified, radiolabelled) [budding yeast], 10 pmoles GST-Dpb11, read off a plot

| response ([1]; 10 pmoles GST-Dpb11, 1 pmole Sld2T84D input, parent: 0.28, read off a plot) [pmol] | response ([1]; 10 pmoles GST-Dpb11, 3 pmoles Sld2T84D input, parent: 0.64, read off a plot) [pmol] | response ([1]; 10 pmoles GST-Dpb11, 10 pmoles Sld2T84D input, parent: 1.6, read off a plot) [pmol] | response ([2]; 1 pmole Cdc45 input, parent: 0.11) [pmol] | response ([2]; 3 pmoles Cdc45 input, parent: 0.44) [pmol] | response ([2]; 10 pmoles Cdc45 input, parent: 0.89) [pmol] | Variant |
| --- | --- | --- | --- | --- | --- | --- |
| 0.3 | 0.72 | 1.7 | – | – | – | chain 1 K463E K469E R538E K549E |
| – | – | – | 0.1 | 0.42 | 0.85 | chain 1 K463E K469E R538E K549E |
